Results reported in patent US20040072369A1, “Methods for assaying for urea and kits for use therein” (priority 2002, published 2004).

Legend:
[1] = system: UreD-GFP fusion protein (urea-inducible ureD promoter); experiment: Urea induction of UreD-GFP fusion, Western blot with anti-GFP; type: cell-based, P. mirabilis HI4320; conditions: 0-500 mM urea tested (FIG. 1)
Source text: Thus, to investigate in vivo expression of P. mirabilis urease, the gene encoding green fluorescent protein (GFP) was used to construct reporter fusions. Translational fusions of urease accessory gene ureD, which is preceded by a urea-inducible promoter, were made with gfp (modified to express S65TIV68L/S72A, a well-known variant of gfp). The constructs were confirmed by sequencing of the fusion junctions. UreD-GFP fusion protein was induced by urea in both E. coli DH5a and P. mirabilis HI4320. Thereafter, Western blotting was carried out with antiserum raised against GFP.

[2] = system: ureD promoter (PureD-lacZ reporter construct); experiment: β-galactosidase reporter assay (PureD-lacZ) with UreR constructs; type: cell-based, E. coli Top10
Protocol: Cultures were grown to mid-log phase and induced with 0.2% (w/v) arabinose in the presence or absence of 100 mM urea for 90 min. All constructs were assayed in duplicate in five independent experiments.
More specifically, wild-type ureR was cloned into the NcoI/XhoI site of pBAD/MycHisA (Invitrogen) to create pCP016 (Poore et al, supra). This construct was used to create alanine mutants using overlapping PCR site-directed mutagenesis as described by Ho et al, Gene, 71:51-59 (1989); and Poore et al, supra. Full-length mutant ureR PCR products were then constructed by ligation into the NcoI/XhoI site of pBAD/MycHisA. Following PCR mutation to Ala, all of the cloned products in the pBAD vector were verified by sequencing. The constructs were then cotransformed with the reporter vector PureD-lacZ into E. coli Top10 (pCC142) (Invitrogen). The β-gal reporter construct pCC042 (tetR) carries a transcriptional fusion of the ureD promoter (pureD) and lacZ (Poore et al, supra). Unless otherwise stated, strains were cultured in Luria broth supplemented with ampicillin (100 μg/ml), kanamycin (50 μg/ml), or tetracycline (15 μg/ml) as required. Thereafter, activity was determined using a β-galactosidase reporter assay in the absence and presence of 100 mM urea.
More specifically, overnight cultures were diluted 1:10 into fresh medium supplemented with ampicillin. Mid-exponential cultures were induced with 0.2% (w/v) arabinose and either no urea or 100 mM urea for 1 h. Bacterial suspensions were placed on ice for 10 min and then permeabilized with 0.1% (w/v) SDS (50 μl) and chloroform (100 μl) at room temperature for 30 min. Aliquots (20-50 μl) were diluted to 1.0 ml in Z buffer comprising 200 μl o-nitrophenyl-β-D-galactopyranoside (4.0 mg/ml) and were incubated at room temperature. Timed reactions were stopped by addition of 1.0 M Na2CO3 (500 μl) and the optical densities at 420 nm and 550 nm were used to calculate Miller units for each assay (Platt et al, “Assays of β-galactosidase Activity”, In: Miller (ed.), Experiments in Molecular Genetics, Cold Spring Harbor Press, Cold Spring Harbor, N.Y., pages 352-355 (1972)). […] The results, which are shown in Table 1 below, are expressed as the average of at least three independent experiments.
The UreR Trp point mutants were confirmed by sequencing and were tested for the ability to induce β-galactosidase expression using the PureD-lacZ reporter assay in the presence of 100 mM urea as described above.

[3] = Trp emission spectra of purified nUreR Trp mutants titrated with urea; type: binding; conditions: upon addition of urea (0-150 mM); excitation 280 nm; room temperature
Protocol: Protein samples (2.0 μM) in 50 mM PBS (pH 7.0), were excited at 280 nm at room temperature.
Three independent experiments were used to calculate the binding constant for this mutant. ΔTrp Emission is the difference in Trp emission intensity with and without urea. The binding constant was determined by fitting the data to the corresponding Hill parameters.
More specifically, Trp emission spectra were collected at room temperature using a Varian Cary Eclipse spectrofluorometer. Purified nUreR Trp mutants (5.0 μM) were excited at 280 nm and urea-dependent emission spectra were measured on the same sample following titration with increasing concentrations (0-150 mM) of urea.
The corresponding Hill parameters were invoked using the curve fitting functions packaged with the Microcal Origin 6.0 data analysis graphing program (Northampton, Mass.).
Trp fluorescence emission spectra from 300-450 nm were taken in the presence of increasing concentrations of urea (0, 0.05, 1, 10, 100 and 150 mM).

## NC(N)=O [urea]
[1]
  urea concentration giving highest induction of UreD-GFP: 200 to 500 mM

B1: Y54W UreR (protein, UniProt Q02458 1-293, looked up, variant Y54W)
Urease operon transcriptional …: MEYKHILSSNQISLKTFYIENPMIAIVYGAKGEICINGQTITVTTNLTLIIPKWSQVSCDVTNFFPTKPIELHTLVLSETELQSVFSLLKPLIKSGAPITRHLPDYHLSTPEVVKTNFTLLQQCLPLEHGTPSQETLFMQQSLFFILLAVYHEGVDILNIFRFNYDEPKNQAITHLITQDPQRKWHLEDVAKTLYTTPSTLRRHLSKEGVSFCQLLLDVRMPIALNYLTFSNYSVFQISHRCGFGSNAYFCDAFKRKYGMTPSQFRTQSRQANDPNAIATMASQNDESIKKVF
[2]; addition of 100 mM urea (FIG. 3)
  fold induction in β-galactosidase activity: 2.8 fold
[2]; full-length UreR Trp point mutants, 100 mM urea (FIG. 3)
  β-galactosidase reporter activity compared to wild-type UreR: overall reduction in the level of activation

B2: Y151W nUreR (protein, UniProt Q02458 1-293, looked up, variant Y151W)
Urease operon transcriptional …: MEYKHILSSNQISLKTFYIENPMIAIVYGAKGEICINGQTITVTTNLTLIIPKYSQVSCDVTNFFPTKPIELHTLVLSETELQSVFSLLKPLIKSGAPITRHLPDYHLSTPEVVKTNFTLLQQCLPLEHGTPSQETLFMQQSLFFILLAVWHEGVDILNIFRFNYDEPKNQAITHLITQDPQRKWHLEDVAKTLYTTPSTLRRHLSKEGVSFCQLLLDVRMPIALNYLTFSNYSVFQISHRCGFGSNAYFCDAFKRKYGMTPSQFRTQSRQANDPNAIATMASQNDESIKKVF
[3]
  % Decrease in Trp Emission: 9 ± 2%

B3: Wild-type: wild-type P. mirabilis UreR expressed from pBAD/MycHisA (pCP016) (protein, UniProt Q02458 1-293, looked up)
Urease operon transcriptional …: MEYKHILSSNQISLKTFYIENPMIAIVYGAKGEICINGQTITVTTNLTLIIPKYSQVSCDVTNFFPTKPIELHTLVLSETELQSVFSLLKPLIKSGAPITRHLPDYHLSTPEVVKTNFTLLQQCLPLEHGTPSQETLFMQQSLFFILLAVYHEGVDILNIFRFNYDEPKNQAITHLITQDPQRKWHLEDVAKTLYTTPSTLRRHLSKEGVSFCQLLLDVRMPIALNYLTFSNYSVFQISHRCGFGSNAYFCDAFKRKYGMTPSQFRTQSRQANDPNAIATMASQNDESIKKVF
modifications: Myc-His tag from pBAD/MycHisA
[2]; 0 mM urea, 0.2% arabinose induction, average of at least three experiments
  β-Galactosidase Activity (Miller units), 0 mM urea: 632 ± 203 Miller units
[2]; 100 mM urea, 0.2% arabinose induction, average of at least three experiments
  β-Galactosidase Activity (Miller units), 100 mM urea: 3709 ± 1570 Miller units
